From article PMC10883267 (2023) come the findings set out here.

Assay in all cases: pulldown with E. coli lysates, quantified
In test [1] the target is eIF4E-binding motif of human eIF4EBP1 (50-83) (UniProt Q13541). The conditions noted are these: n = 3 independent experiments; parent: est. 0.90; read off a plot.
The target in test [2] is eIF4E-binding motif of human eIF4ENIF1 (27-63) (UniProt Q9NRA8). The conditions noted are these: n = 3 independent experiments; parent: est. 2.5; read off a plot.
eIF4E-binding motif of human eIF4ENIF1 (27-63), sequence (Q9NRA8 27-63): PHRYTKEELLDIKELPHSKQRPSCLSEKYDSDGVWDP
Test [3] deals with eIF4E-binding motif of human eIF4G (608-647) (UniProt Q04637). The conditions noted are these: n = 3 independent experiments; parent: est. 0.30; read off a plot.
eIF4E-binding motif of human eIF4G (608-647), sequence (Q04637 608-647): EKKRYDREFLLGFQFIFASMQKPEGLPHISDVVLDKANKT

mouse eIF4E1B (63-244) (from UniProt Q3UTA9) Lateral (V91, T92, I107 mutated; new residues not printed), sequence (Q3UTA9 63-244, change not shown): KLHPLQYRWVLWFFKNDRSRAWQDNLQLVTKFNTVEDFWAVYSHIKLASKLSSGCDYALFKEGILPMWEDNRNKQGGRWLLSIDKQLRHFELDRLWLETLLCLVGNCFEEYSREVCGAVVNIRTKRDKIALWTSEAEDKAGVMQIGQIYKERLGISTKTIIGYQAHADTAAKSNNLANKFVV
mouse eIF4E1B (63-244) (from UniProt Q3UTA9) Dorsal (W101 mutated; new residue not printed), sequence (Q3UTA9 63-244, change not shown): as above
eIF4E-binding motif of human eIF4EBP1 (50-83), sequence (Q13541 50-83): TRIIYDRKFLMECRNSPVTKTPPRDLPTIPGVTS

As for “mouse eIF4E1B (63-244) (from UniProt Q3UTA9) Dorsal (W101 mutated; new residue not printed)”, the other: Binding (rel. to Mm eIF4E) (rel. to Mm eIF4E) is 0.1 in test [1], 0.15 in test [2] and 0.2 in test [3].
“mouse eIF4E1B (63-244) (from UniProt Q3UTA9) Lateral (V91, T92, I107 mutated; new residues not printed)”: the other: Binding (rel. to Mm eIF4E) (rel. to Mm eIF4E) came out at 0.2 in test [1], 0.9 in test [2] and 0.12 in test [3].
